The source of these data is PMC7878818, “Structural mechanism of bivalent histone H3K4me3K9me3 recognition by the Spindlin1/C11orf84 complex in rRNA transcription activation” (Nature Communications, 2021).

Square brackets hold non-standard residues; d marks the D form. Ends that are not written are not given here. Me3 = trimethyl group on lysine (trimethyl-lysine); Arg(Me2a) = CN(C)C(=N)NCCC[C@H](N)C(=O)O; Lys(Me3) = C[N+](C)(C)CCCC[C@H](N)C(=O)O

What all share (details): both partners purified
Assay [1] deals with T1, Spindlin1 (aa: 50–262) (human, UniProt Q9Y657 50-262).
T1 construct: The methods describe only co-expression plasmids with C11orf84; also called Spindlin1 alone
In words: crystal structure; 1:1.5 molar ratio of Spindlin1 (aa 50-262)/C11orf84 (aa 253-295) binary complex and H3K4me3K9me3 (A1-G12) peptide; hanging drop, 291 K; 1.60 Å.

In assay [2] the target is T2, Spindlin1 (aa: 50–262)/C11orf84 (aa: 253–295) binary complex (human, UniProt Q9Y657 50-262; Q9BUA3 253-295).
T2 construct: This binary complex was mixed with the H3K4me3K9me3 (A1-G12) peptide for crystallisation; also called Spindlin1/C11orf84
Described as above.

The target of a further assay is T3, Spindlin4 (human).
T3 construct: human Spindlin4; Construct, host and purification of the Spindlin4 used for ITC are told nowhere
T3 chain: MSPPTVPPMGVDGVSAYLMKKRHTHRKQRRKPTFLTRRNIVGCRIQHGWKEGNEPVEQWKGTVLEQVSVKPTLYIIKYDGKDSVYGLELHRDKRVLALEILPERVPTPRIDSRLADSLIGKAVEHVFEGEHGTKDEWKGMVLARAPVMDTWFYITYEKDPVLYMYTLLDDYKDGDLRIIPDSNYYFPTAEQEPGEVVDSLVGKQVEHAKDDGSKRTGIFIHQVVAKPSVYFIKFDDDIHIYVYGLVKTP
In words: ITC; 25 °C, MicroCal ITC200; 20 mM HEPES pH 7.5, 150 mM NaCl; 0.8 mM H3 peptide injected into 50 μM protein or complex in the sample cell.

The target in the next assay is T4, Spindlin1 (aa: 50-262) (human).
T4 construct: for the ITC of 'Spindlin1' alone the limits are not restated
The assay is described as above.

For assay [3], the target named is T1, Spindlin1 (aa: 50–262). Put plainly: ITC; 25 °C, MicroCal ITC200; 20 mM HEPES pH 7.5, 150 mM NaCl; 50 μM Spindlin1 or Spindlin1/C11orf84 complex in the cell, 0.8 mM peptide injected.
The target in assay [4] is T1, Spindlin1 (aa: 50–262). In words: anion-exchange chromatography; co-expressed Spindlin1 (aa 50-262) and C11orf84 (aa 219-305); SDS-PAGE of the peak fraction.

T4 sequence (chain, as listed by the source): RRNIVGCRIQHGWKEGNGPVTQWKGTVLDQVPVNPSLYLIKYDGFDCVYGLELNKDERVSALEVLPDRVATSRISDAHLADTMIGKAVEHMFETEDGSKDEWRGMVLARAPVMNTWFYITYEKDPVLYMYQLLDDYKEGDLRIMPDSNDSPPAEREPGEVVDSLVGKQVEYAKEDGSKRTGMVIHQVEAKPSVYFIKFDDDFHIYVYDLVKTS
T1 sequence (Q9Y657 50-262): as the sequence (chain, as listed by the source) above
T2 sequence (Q9Y657 50-262, one chain of several): as the sequence (chain, as listed by the source) above

B1: H3K4me3K9me3 (A1-G12) peptide (peptide, UniProt P68431 2-13, looked up)
peptide: ARTK(Me3)QTARK(Me3)STG
notes: histone H3 residues A1-G12; This is the peptide of the crystal structure; also called H3K4me3K9me3 peptide; methyl histone peptide
Take B1: the binding result (with Spindlin1 (aa: 50–262) [1]; in assay [2]) was “binds” each time.

B2: H3K4me3K9me3 peptide, H3 (1-12) (peptide)
peptide: ARTK(Me3)QTARK(Me3)STG
notes: histone H3 N-terminal tail, residues 1-12; also called H3K4me3K9me3 (A1-G12) peptide
One may read the Kd as the free concentration of one partner at which half of the binding sites on the other are occupied at equilibrium, for simple one-to-one binding. A high value points to a looser complex. The stoichiometry N is the number of molecules, sites or subunits per partner or assembly. For the molecule B2, in the assay with Spindlin4, binding was characterised by a dissociation constant (Kd) of 41 ± 5 nM. Besides, the “stoichiometry N” value with Spindlin1 (aa: 50-262) was found to be 1.04.

B3: H3K4me3R8me2a peptide (peptide)
chain: ART[Lys(Me3)]QTA[Arg(Me2a)]KSTG
Regarding B3, in the assay with Spindlin1 (aa: 50–262) [3], the “fold by which the affinity for H3K4me3K9me3 is higher than for this peptide” value is ~4 fold.

B4: C11orf84 (aa: 253–295) (domain or fragment, human, UniProt Q9BUA3 253-295, looked up)
chain: TETFAAPAEVRHFTDGSFPAGFVLQLFSHTQLRGPDSKDSPKD
notes: T255-Q283 defined in the electron density; The cloning of this fragment is not described; It is named only as part of the binary complex used for crystallisation; also called C11orf84 fragment; C11orf84 segment
Consider B4, for which the binding result with Spindlin1 (aa: 50–262) [1] is listed as “binds”.

B5: H3K4me3R8me2a peptide, H3 (1-12) (peptide)
peptide: ARTK(Me3)QTAR(asymmetric Me2)KSTG
notes: histone H3 N-terminal tail, residues 1-12
Consider B5, for which, in the assay with Spindlin1 (aa: 50-262), binding was characterised by a dissociation constant (Kd) of 170 nM and the “stoichiometry N” value stood at 1.02.

B6: C11orf84 (aa: 219–305) (domain or fragment, human, UniProt Q9BUA3 219-305, looked up)
chain: WKEPPGEEPVRKKRGRPMTKNLDPDPEPPSPDSPTETFAAPAEVRHFTDGSFPAGFVLQLFSHTQLRGPDSKDSPKDREVAEGGLPR
Regarding B6, the binding result with Spindlin1 (aa: 50–262) [4] is recorded as “binds”.
